Reference: publication PMC12452593

Target: EV-D68 US/MO/14-18947 viral particles (Enterovirus D68)

secreted MFSD6-Fc microbody (from UniProt Q6ZSS7 153-280) (Fc fusion)
survival rate of neonatal ICR mice (n = 9 per group) given 1.0 × 10^7 TCID50 of EV-D68 US/MO/14-18947 pre-incubated with 15 ug secMFSD6 Mb (secCtl Mb group: 11.11%): 88.9%
